Values belong to the substance of their own block, whether it stands above or below them.
Experiments:
[1] = target: rHuman P-Cadherin/Fc Chimera, CF (R&D Systems Cat#861-PC) (human) (UniProt P22223); assay: ECL multispot (MSD), antigen spotted, Fab in solution
[2] = target: Recombinant Human DLL4 (R&D Systems Cat#1506-D4/CF) (human) (UniProt Q9NR61); assay: as above
[3] = target: rHuman Erythropoietin R/Fc Chimera, CF (R&D Systems Cat#963-ER) (human) (UniProt P19235); assay: as above
[4] = target: rHuman ErbB2/Fc Chimera, CF (R&D Systems Cat#1129-ER) (human) (UniProt P04626); assay: as above
[5] = target: rHuman CD44/Fc Chimera, CF (R&D Systems Cat#3660-CD) (human) (UniProt P16070); assay: as above
[6] = target: rHuman IGF-1 sR, CF (R&D Systems Cat#391-GR) (human) (UniProt P08069); assay: as above
[7] = target: rHuman EGF R/Fc Chimera, CF (R&D Systems Cat#344-ER) (human) (UniProt P00533); assay: as above
[8] = target: rHuman Notch-1/Fc Chimera, CF (R&D Systems Cat#3647-TK) (human) (UniProt P46531); assay: as above
[9] = target: rHuman HGF R/c-MET/Fc Chimera, CF (R&D Systems Cat#358-MT/CF) (human) (UniProt P08581); assay: as above
[10] = target: rHuman ErbB2/Fc Chimera, CF (R&D Systems Cat#1129-ER) (human) (UniProt P04626); assay: MSD multispot ECL, antigen spotted on plate; Fab 0.2975 uM; blank spot 5019
[11] = target: rHuman IGF-1 sR, CF (R&D Systems Cat#391-GR) (human) (UniProt P08069); assay: as above
[12] = target: rHuman HGF R/c-MET/Fc Chimera, CF (R&D Systems Cat#358-MT/CF) (human) (UniProt P08581); assay: as above
[13] = target: rHuman ErbB2/Fc Chimera, CF (R&D Systems Cat#1129-ER) (human) (UniProt P04626); assay: MSD multispot ECL, antigen spotted on plate; Fab 0.01859 uM; blank spot 1776
[14] = target: rHuman IGF-1 sR, CF (R&D Systems Cat#391-GR) (human) (UniProt P08069); assay: as above
[15] = target: rHuman HGF R/c-MET/Fc Chimera, CF (R&D Systems Cat#358-MT/CF) (human) (UniProt P08581); assay: as above
[16] = target: rHuman ErbB2/Fc Chimera, CF (R&D Systems Cat#1129-ER) (human) (UniProt P04626); assay: MSD multispot ECL, antigen spotted on plate; Fab 0.07438 uM; blank spot 2504
[17] = target: rHuman IGF-1 sR, CF (R&D Systems Cat#391-GR) (human) (UniProt P08069); assay: as above
[18] = target: rHuman HGF R/c-MET/Fc Chimera, CF (R&D Systems Cat#358-MT/CF) (human) (UniProt P08581); assay: as above
[19] = target: rHuman ErbB2/Fc Chimera, CF (R&D Systems Cat#1129-ER) (human) (UniProt P04626); assay: MSD multispot ECL, antigen spotted on plate; Fab 1.19 uM; blank spot 24999
[20] = target: rHuman IGF-1 sR, CF (R&D Systems Cat#391-GR) (human) (UniProt P08069); assay: as above
[21] = target: rHuman HGF R/c-MET/Fc Chimera, CF (R&D Systems Cat#358-MT/CF) (human) (UniProt P08581); assay: as above
[22] = target: rHuman P-Cadherin/Fc Chimera, CF (R&D Systems Cat#861-PC) (human) (UniProt P22223); assay: ECL Multispot (MSD), antigen spotted, Fab
[23] = target: Recombinant Human DLL4 (R&D Systems Cat#1506-D4/CF) (human) (UniProt Q9NR61); assay: ECL Multispot (MSD), antigen spotted, Fab
[24] = target: rHuman Erythropoietin R/Fc Chimera, CF (R&D Systems Cat#963-ER) (human) (UniProt P19235); assay: ECL Multispot (MSD), antigen spotted, Fab
[25] = target: rHuman CD44/Fc Chimera, CF (R&D Systems Cat#3660-CD) (human) (UniProt P16070); assay: ECL Multispot (MSD), antigen spotted, Fab
[26] = target: rHuman IGF-1 sR, CF (R&D Systems Cat#391-GR) (human) (UniProt P08069); assay: ECL Multispot (MSD), antigen spotted, Fab
[27] = target: rHuman EGF R/Fc Chimera, CF (R&D Systems Cat#344-ER) (human) (UniProt P00533); assay: ECL Multispot (MSD), antigen spotted, Fab
[28] = target: rHuman Notch-1/Fc Chimera, CF (R&D Systems Cat#3647-TK) (human) (UniProt P46531); assay: ECL Multispot (MSD), antigen spotted, Fab
[29] = target: rHuman HGF R/c-MET/Fc Chimera, CF (R&D Systems Cat#358-MT/CF) (human) (UniProt P08581); assay: ECL Multispot (MSD), antigen spotted, Fab
[30] = target: rHuman ErbB2/Fc Chimera, CF (R&D Systems Cat#1129-ER) (human) (UniProt P04626); assay: ECL Multispot (MSD), antigen spotted, Fab
[31] = target: rHuman ErbB2/Fc Chimera, CF (R&D Systems Cat#1129-ER) (human) (UniProt P04626); assay: Multispot ECL (MSD) assay, antigen spotted on plate, Fab at […]; blank spot 2945
[32] = target: rHuman ErbB2/Fc Chimera, CF (R&D Systems Cat#1129-ER) (human) (UniProt P04626); assay: Multispot ECL (MSD) assay, antigen spotted on plate, Fab at […]; blank spot 751
[33] = target: rHuman ErbB2/Fc Chimera, CF (R&D Systems Cat#1129-ER) (human) (UniProt P04626); assay: Multispot ECL (MSD) assay, antigen spotted on plate, Fab at 0.096 µM; blank spot 917
[34] = target: rHuman P-Cadherin/Fc Chimera, CF (R&D Systems Cat#861-PC) (human) (UniProt P22223); assay: ECL multispot (MSD) assay, antigen spotted on plate, 20 nM Fab
[35] = target: Recombinant Human DLL4 (R&D Systems Cat#1506-D4/CF) (human) (UniProt Q9NR61); assay: as above
[36] = target: rHuman CD44/Fc Chimera, CF (R&D Systems Cat#3660-CD) (human) (UniProt P16070); assay: as above
[37] = target: rHuman IGF-1 sR, CF (R&D Systems Cat#391-GR) (human) (UniProt P08069); assay: as above
[38] = target: rHuman EGF R/Fc Chimera, CF (R&D Systems Cat#344-ER) (human) (UniProt P00533); assay: as above
[39] = target: rHuman Notch-1/Fc Chimera, CF (R&D Systems Cat#3647-TK) (human) (UniProt P46531); assay: as above
[40] = target: rHuman P-Cadherin/Fc Chimera, CF (R&D Systems Cat#861-PC) (human) (UniProt P22223); assay: Multispot ECL (MSD), antigen spotted on plate, Fab 0.00391 uM; blank spot 576
[41] = target: Recombinant Human DLL4 (R&D Systems Cat#1506-D4/CF) (human) (UniProt Q9NR61); assay: as above
[42] = target: rHuman ErbB2/Fc Chimera, CF (R&D Systems Cat#1129-ER) (human) (UniProt P04626); assay: as above
[43] = target: rHuman P-Cadherin/Fc Chimera, CF (R&D Systems Cat#861-PC) (human) (UniProt P22223); assay: Multispot ECL (MSD), antigen spotted on plate, Fab […]; blank spot 6344
[44] = target: Recombinant Human DLL4 (R&D Systems Cat#1506-D4/CF) (human) (UniProt Q9NR61); assay: as above
[45] = target: rHuman ErbB2/Fc Chimera, CF (R&D Systems Cat#1129-ER) (human) (UniProt P04626); assay: as above
[46] = target: rHuman P-Cadherin/Fc Chimera, CF (R&D Systems Cat#861-PC) (human) (UniProt P22223); assay: Multispot ECL (MSD), antigen spotted on plate, Fab 0.0625 uM; blank spot 1738
[47] = target: Recombinant Human DLL4 (R&D Systems Cat#1506-D4/CF) (human) (UniProt Q9NR61); assay: as above
[48] = target: rHuman ErbB2/Fc Chimera, CF (R&D Systems Cat#1129-ER) (human) (UniProt P04626); assay: as above
[49] = target: rHuman P-Cadherin/Fc Chimera, CF (R&D Systems Cat#861-PC) (human) (UniProt P22223); assay: Multispot ECL (MSD), antigen spotted on plate, Fab 0.01563 uM; blank spot 906
[50] = target: Recombinant Human DLL4 (R&D Systems Cat#1506-D4/CF) (human) (UniProt Q9NR61); assay: as above
[51] = target: rHuman ErbB2/Fc Chimera, CF (R&D Systems Cat#1129-ER) (human) (UniProt P04626); assay: as above

ECL signal/blank ratio [22]: 1.1 | ECL signal/blank ratio [23]: 1.2 | ECL signal/blank ratio [24]: 1.6 | ECL signal/blank ratio [30]: 1.3 | ECL signal/blank ratio [26]: 1.4 | ECL signal/blank ratio [28]: 1.1 | ECL signal/blank ratio [29]: 0.8
Substance: Fab VH3-23_IGHD3-10*01>3_IGHJ6*01 Y112A & O12_IGKJ1*01

ECL signal [31]: 11300 | ECL signal [32]: 2310 | ECL signal [33]: 3360
Substance: Fab VH1-46_IGHD6-13*01_IGHJ4*01 & A27_IGKJ1*01

The next lines start with the substance.

Substance: Fab VH3-23_IGHD3-10*01>3_IGHJ6*01 Y112V & O12_IGKJ1*01
ECL signal/blank ratio [1]: 9.8 | ECL signal/blank ratio [2]: 2 | ECL signal/blank ratio [3]: 4.3 | ECL signal/blank ratio [4]: 1.6 | ECL signal/blank ratio [5]: 1 | ECL signal/blank ratio [6]: 0.8 | ECL signal/blank ratio [7]: 1.2 | ECL signal/blank ratio [8]: 1.4 | ECL signal/blank ratio [9]: 1.3

Substance: Fab VH1-46_IGHD6-13*01_IGHJ4*01 & L2_IGKJ1*01
ECL signal [10]: 15100 | ECL signal [11]: 17400 | ECL signal [12]: 17400 | ECL signal [13]: 5530 | ECL signal [14]: 3780 | ECL signal [15]: 4570 | ECL signal [16]: 7550 | ECL signal [17]: 5800 | ECL signal [18]: 6610 | ECL signal [19]: 38400 | ECL signal [20]: 35200 | ECL signal [21]: 45500

Substance: Fab VH3-23_IGHD3-10*01>3_IGHJ6*01 Y112G & O12_IGKJ1*01
ECL signal/blank ratio [22]: 1.4 | ECL signal/blank ratio [23]: 2.2 | ECL signal/blank ratio [24]: 1.6 | ECL signal/blank ratio [25]: 2.5 | ECL signal/blank ratio [26]: 2.3 | ECL signal/blank ratio [27]: 2.1 | ECL signal/blank ratio [28]: 3.3 | ECL signal/blank ratio [29]: 2.3

Substance: Fab VH3-23_IGHD2-21*01>3_IGHJ6*01 H100E/S108P V64A & V2-13_IGLJ2*01
ECL signal/blank ratio (read-out not given) [34]: 30.6 | ECL signal/blank ratio (read-out not given) [35]: 2.7 | ECL signal/blank ratio (read-out not given) [36]: 2.2 | ECL signal/blank ratio (read-out not given) [37]: 1.2 | ECL signal/blank ratio (read-out not given) [38]: 9.1 | ECL signal/blank ratio (read-out not given) [39]: 3

Substance: Fab VH1-46_IGHD2-15*01_IGHJ2*01 & L2_IGKJ1*01
ECL signal [40]: 1960 | ECL signal [41]: 1550 | ECL signal [42]: 1670 | ECL signal [43]: 25500 | ECL signal [44]: 27700 | ECL signal [45]: 29600 | ECL signal [46]: 7740 | ECL signal [47]: 8050 | ECL signal [48]: 9030 | ECL signal [49]: 4940 | ECL signal [50]: 4020 | ECL signal [51]: 4500

Reference: patent US20120316071A1
